Assay results: PMC3213152

How the values were obtained:
[1] = target: Rck, outer membrane protein of Salmonella enterica serovar Typhimurium, expressed on E. coli BL21(DE3) from plasmid pRck (Salmonella enterica serovar Typhimurium strain SL1344) (UniProt Q04817); assay: flow cytometry on cells; E. coli BL21(DE3) pRck in DPBS with purified C4BP (increasing amounts) or with wt C4BP or recombinant CCP deletion mutants at 10 µg/ml, 37°C; detected with sheep polyclonal anti-human C4BP; MFI of wt C4BP set to 100%
[2] = target: Rck, outer membrane protein of Salmonella enterica serovar Typhimurium, expressed on E. coli BL21(DE3) from plasmid pRck (Salmonella enterica serovar Typhimurium strain SL1344) (UniProt Q04817); assay: flow cytometry on cells; E. coli BL21(DE3) pRck with wt C4BP or the CCP7 or CCP8 deletion mutant (10 µg/ml); detected with monoclonal anti-C4BP MK104, specific for CCP1 of the α-chain; MFI of wt C4BP set to 100%
[3] = target: Rck G118D mutant (Salmonella enterica serovar Typhimurium) (UniProt Q04817); assay: flow cytometry on cells; data not shown: FACS analysis with purified C4BP on the Rck G118D mutant against wt Rck

Substance | percent reduction in binding against wt C4BP [1] | percent reduction in binding against wt C4BP [2] | fold less C4BP bound than by wt Rck [3]
Recombinant human C4BP mutant with CCP8 of the α-chain deleted (from UniProt P04003 49-597) (complex) | 60% | 78% | 
Human C4b-binding protein (C4BP) (from UniProt P04003 49-597; P20851 18-252) (complex) |  |  | 24 fold
Recombinant human C4BP mutant with CCP7 of the α-chain deleted (from UniProt P04003 49-597) (complex) | 70% | 84% | 
